Laboratory results reported in the supplement of paper PMC9170038.

System: MS2 coat protein
Assay: apparent KD of MS2 coat protein; designed switch direction (-1 OFF switch, 1 ON switch): -1; higher = weaker reporter binding
In short: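 Normalised cluster fluorescence was curve-fitted, and each design's median over clusters is its apparent KD. Before this, SNAP-549-labelled MS2 coat protein was titrated from 0.7 or 1.5 nM, doubling to 3 µM, over RNA switches transcribed on Illumina chips by stalled E. coli RNA polymerase. Titrations had no input, 200 uM small-molecule ligand, or an oligonucleotide input, and steps lasted 0.8–1.5 h (lowest) to 10–20 min (highest).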

[1] = input ligand: microRNA oligo, concentration not stated
[2] = Eterna round: R95, input ligand: FMN 200 uM
[3] = Eterna round: R95, input ligand: microRNA oligo, concentration not stated
[4] = Eterna round: R95, input ligand: none

Row | Sequence | apparent KD of MS2 coat protein (input ligand: FMN 200 uM) | apparent KD of MS2 coat protein (input ligand: none) | apparent KD of MS2 coat protein [1] | apparent KD of MS2 coat protein [2] | apparent KD of MS2 coat protein [3] | apparent KD of MS2 coat protein [4]
1 | UACACUCAGCAGGAUAUGCAACAAAAUUAAAACGCAGAAGGGUUGACAUGAGGAUCACCCAUGUAACUCAUGCA [EX6 A.1] (Eterna round: R97, puzzle: Exclusion 6) | 14.2 nM | 15.7 nM | – | – | – | –
2 | CGUCAGAUCGCAGGAUAUGUUAGAUGAGCACAGAAUGUCCAGACCACAUGAGGAUCACCCAUGUAACAGAAGGGCGGUCUACGG [Eternabot solution 29] (Eterna round: R96, puzzle: Exclusion NG 2) | 79.3 nM | 95.6 nM | 195 nM | – | – | –
3 | AAAGCAAAGACAGGAUAUCGACCCAGUGAUUUUCGUGCCGGAAACAUGAGGAUCACCCAUGUGUACGAGAAGGGUCAAAACAAC [Uslebeteat] (Eterna round: R96, puzzle: Exclusion NG 2) | 61.9 nM | 22.3 nM | 17.1 nM | – | – | –
4 | AACAGUAGAGGAUAUACACGAACAAACAUGAGGAUCACCCAUGUGAAACCGUGCUGUCCGGUAGAAGGCUACUAUA [Zavetiaton] (Eterna round: R97, puzzle: Exclusion 5) | 40.6 nM | 17.4 nM | – | – | – | –
5 | AUACCAUGCCGCCUAAUAGCUUUUUGCCCGUCUUAUAAAACAUGAGGAUCACCCAUGUAAAACUCGUGGCGUGACCC [Quarre] (puzzle: Sensor v3, turn-off variant 2) | – | – | – | 156 nM | 21.9 nM | 195 nM
6 | GGAUCGAGUGUGAGGAUAUGCUGGUCCUUGGAUCAGCAGAAGGCACAUGAGGAUCACCCAUGUGAAGACGAUCC [Mat - Exclusion 4 - JL Mod - D73] (puzzle: Brourd's mod of Exclusion 4) | – | – | – | – | 21.2 nM | –
7 | UACAAGCUUUUAAGAUCCCACAUGAGGAUCACCCAUGUGCUCGUCUUAUAACGUACUGUGACGAAAGUCACGGUACG [JL TOV1 3.24] (Eterna round: R97, puzzle: Sensor, turn-off variant 1) | 15.8 nM | 24.3 nM | – | – | – | –
8 | GAGUCACAUGAGGAUCACCCAUGUGAGGAUAUCAUGCUUCGUAGUAAACUACGAAGUGUGAGAAGGCACAAUGG [Omei Ex1 C8] (Eterna round: R97, puzzle: Exclusion 1) | 126 nM | 68.6 nM | – | – | – | –
9 | GAAAAGGUAGGAUAUACGAAAAAAAAAGGUAGAAAAAAAACACAUGAGGAUCACCCAUGUAGAAGGACCAAAAG [salish99_ex2_r3_070] (puzzle: Exclusion 2) | – | – | – | 37.4 nM | 51.5 nM | 30.6 nM
10 | CGGAAAUCCAAGGAUAUGCUAGACGAAAGUCUAGCAGAAGGUGGAACAUGAGGAUCACCCAUGUGUCCAAUCCG [Mat - Exclusion 6 - Eli Mod - D25] (Eterna round: R97, puzzle: Exclusion 6) | 19.1 nM | 14.5 nM | – | – | – | –
11 | UGAGUGCUGCGAGGAUAUACAUGAGGAUCACCCAUGUGGUCCUGUGAGGCUUUGCCUCACAGGAUGUAGAAGGCGCAGUACUCU [JL ENG2 1.18] (Eterna round: R96, puzzle: Exclusion NG 2) | 82.9 nM | 17.4 nM | 13.8 nM | – | – | –
12 | ACAUGAGGAUCACCCAUGUGCACGUAAUGGCUCAUGUAGAGUGAGGAUAUGCGUGGCGAACGCGCGCAGAAGGCACAAGACUGG [Deportation 18 - Jieux - Exclusion NG 3] (Eterna round: R96, puzzle: Exclusion NG 3) | 129 nM | 99.7 nM | 88.8 nM | – | – | –
13 | UCCCUGUCAGGAUAUACAUGAGGAUCACCCAUGUCUCUCCGACACGGGAAAAGGAACUGUAGAAGGGACAGGAU [Xezaeseris] (puzzle: Exclusion 3) | – | – | – | 19.6 nM | 12.3 nM | 15.2 nM
14 | AUCAUGUCAGGAUAUCUGAUAUGGAUCUUCGGAUCAAGUUCAGAGAAGGGACAUGAGGAUCACCCAUGUCGAAC [Ex4-3: 31] (puzzle: Exclusion 4) | – | – | – | – | 25.6 nM | –
15 | AGUUGGCGAGGAUAUACAUGAGGAUCACCCAUGUGAAGAAGAAUAGUGAGGAAGAAAAGUAGAAGGCGCUGACA [Mat - Exclusion 3 - Mod of Salish D37] (puzzle: Exclusion 3) | – | – | – | – | 36.6 nM | –
16 | UAGAUGGGAGGAUAUGCGUAGAUGCGGAUUCGUGUGGUGCUACAUGAGGAUCACCCAUGUAGAAGGCCCGUCUU [JL-ex2-2.26 Mayanne mod] (puzzle: Exclusion 2) | – | – | – | – | 13.5 nM | –
17 | GGGUGACAUGAGGAUCACCCAUGUCAGGAUAUGAUUCUGCUUGCGAAAGCGAGUAGAAUCAGAAGGGACAACCC (Eterna round: R97, puzzle: Exclusion 1) | 359 nM | 57 nM | – | – | – | –
18 | GGUGGGCUAGGAUAUGCUUUGGGAAAGCAUUCCUUCGAUAAACUUGAGGAUCACCCAAGUAGAAGGAGCUUGCC [salish99_ex2_r4_020] (Eterna round: R97, puzzle: Exclusion 2) | 16.4 nM | 13.4 nM | – | – | – | –
19 | UUUAUGUGAGGAUAUAGUACUCCUUCUAUUAUUAUUGAGUACUAGAAGGCACAUGAGGAUCACCCAUGUAGUAC [Ex4 - 3 - 37] (puzzle: Exclusion 4) | – | – | – | – | 24.3 nM | –
20 | UGAGUGCUGCGAGGAUAUACAUGAGGAUCACCCAUGUAAUCGUGUGAGGCUUUGCCUCACACGAAGUAGAAGGCGCAGUACUCU [JL ENG2 1.10] (Eterna round: R96, puzzle: Exclusion NG 2) | 12 nM | 13.5 nM | 9.84 nM | – | – | –
21 | UAGAUGGGAGGAUAUACAUAGAUACAGAUUCAUGUAGUGCUACAUGAGGAUCACCCAUGUAGAAGGCCCGUCUU [JL-ex2-2.18 Mayanne mod] (puzzle: Exclusion 2) | – | – | – | – | 31.6 nM | –
22 | AAUGAUUGACGAGGAUAUUGUGGUAAAACACGACGAGAAGGCGUCUGUCACAUGAGGAUCACCCAUGUGAGCUUUGUGGAUAGA [Ex NG1 #72] (Eterna round: R96, puzzle: Exclusion NG 1) | 52.3 nM | 59.8 nM | 33.6 nM | – | – | –
23 | UCAAGUAUGUAGGAUAUGAUGUGAUUUUACAUAUCAGAAGGACGUACAUGAGGAUCACCCAUGUAACUUGCAUG [Exclusion 6 - B - 12:a] (puzzle: Exclusion 6) | – | – | – | – | 86.9 nM | –
24 | GCAUGUUGGUAGGAUAUGCAGCGGAAACCGCUAGUAGAAGGAUUGACAUGAGGAUCACCCAUGUGAACCGAAGG [Arcelace] (Eterna round: R97, puzzle: Exclusion 6) | 186 nM | 40.4 nM | – | – | – | –
25 | CAUACUGAAGUUAGGAUAUUCGGACGAAUACGGAUGGAGAAGGGACAUGAGGAUCACCCAUGUAGAUAGUAAAG [EX-4 Malc #13] (puzzle: Brourd's mod of Exclusion 4) | – | – | – | 20.1 nM | 20.7 nM | 19.8 nM
26 | UGAUCAGACCGAGGAUAUAUAUGUAGGACGCACGUGAGUGCGUCCAGUACAUGAGGAUCACCCAUGUAGAAGGCGGUCUGAUCU [JL ENG2 1.96] (Eterna round: R96, puzzle: Exclusion NG 2) | 20.3 nM | 13.6 nM | 9.99 nM | – | – | –
